# In patent publication US7410949 (Hoffmann-La Roche, dated 2008):
# *1 amine or outer side, *2 acyl side, *3 side chain or, on linkers, in order; H or OH if unused. Bridges are numbered along the chain shown (N, C = ends). [ ]: non-standard residue; d: D form. Pqa = N-piperazin-1-yl-4(3H)-quinazolinone-3-acetic acid, O=C(Cn1cnc2ccc(N3CCN([*:1])CC3)cc2c1=O)[*:2]; 4Pal = N[C@@H](Cc1ccncc1)C(=O)O; Tic = O=C(O)[C@@H]1Cc2ccccc2CN1; 4‑MeOApc = not defined here; Nle = CCCC[C@H](N)C(=O)O
# B1: H-Ile-Lys-Pqa-Arg-His-Tyr-Leu-Asn-Leu-Val-Thr-Arg-Ala-Arg-Tyr-NH2 (peptide)
# peptide: H-IK[Pqa]RHYLNLVTRARY-NH2
# SMILES: CC[C@H](C)[C@H](N)C(=O)N[C@@H](CCCCN)C(=O)N1CCN(c2ccc3ncn(CC(=O)N[C@@H](CCCNC(=N)N)C(=O)N[C@@H](Cc4c[nH]cn4)C(=O)N[C@@H](Cc4ccc(O)cc4)C(=O)N[C@@H](CC(C)C)C(=O)N[C@@H](CC(N)=O)C(=O)N[C@@H](CC(C)C)C(=O)N[C@H](C(=O)N[C@H](C(=O)N[C@@H](CCCNC(=N)N)C(=O)N[C@@H](C)C(=O)N[C@@H](CCCNC(=N)N)C(=O)N[C@@H](Cc4ccc(O)cc4)C(N)=O)[C@@H](C)O)C(C)C)c(=O)c3c2)CC1
# B2: H-Ile-Lys-Pqa-Arg-His-Tyr-Leu-Asn-Leu-Val-Ala-Arg-Gln-Arg-Tyr-NH2 (peptide)
# peptide: H-IK[Pqa]RHYLNLVARQRY-NH2
# SMILES: CC[C@H](C)[C@H](N)C(=O)N[C@@H](CCCCN)C(=O)N1CCN(c2ccc3ncn(CC(=O)N[C@@H](CCCNC(=N)N)C(=O)N[C@@H](Cc4c[nH]cn4)C(=O)N[C@@H](Cc4ccc(O)cc4)C(=O)N[C@@H](CC(C)C)C(=O)N[C@@H](CC(N)=O)C(=O)N[C@@H](CC(C)C)C(=O)N[C@H](C(=O)N[C@@H](C)C(=O)N[C@@H](CCCNC(=N)N)C(=O)N[C@@H](CCC(N)=O)C(=O)N[C@@H](CCCNC(=N)N)C(=O)N[C@@H](Cc4ccc(O)cc4)C(N)=O)C(C)C)c(=O)c3c2)CC1
# B3: Ac-Ile-Nle-Pqa-Arg-His-Tic-Leu-Asn-Leu-Val-Thr-Arg-Gln-Arg-Tyr-NH2 (peptide)
# peptide: Ac-I[Nle][Pqa]RH[Tic]LNLVTRQRY-NH2
# SMILES: CCCC[C@H](NC(=O)[C@@H](NC(C)=O)[C@@H](C)CC)C(=O)N1CCN(c2ccc3ncn(CC(=O)N[C@@H](CCCNC(=N)N)C(=O)N[C@@H](Cc4c[nH]cn4)C(=O)N4Cc5ccccc5C[C@H]4C(=O)N[C@@H](CC(C)C)C(=O)N[C@@H](CC(N)=O)C(=O)N[C@@H](CC(C)C)C(=O)N[C@H](C(=O)N[C@H](C(=O)N[C@@H](CCCNC(=N)N)C(=O)N[C@@H](CCC(N)=O)C(=O)N[C@@H](CCCNC(=N)N)C(=O)N[C@@H](Cc4ccc(O)cc4)C(N)=O)[C@@H](C)O)C(C)C)c(=O)c3c2)CC1
# B4: Ac-Ile-Nle-Pqa-Arg-(4-Pal)-Tyr-Leu-Asn-Leu-Val-Thr-Arg-Gln-Arg-Tyr-NH2 (peptide)
# peptide: Ac-I[Nle][Pqa]R[4Pal]YLNLVTRQRY-NH2
# SMILES: CCCC[C@H](NC(=O)[C@@H](NC(C)=O)[C@@H](C)CC)C(=O)N1CCN(c2ccc3ncn(CC(=O)N[C@@H](CCCNC(=N)N)C(=O)N[C@@H](Cc4ccncc4)C(=O)N[C@@H](Cc4ccc(O)cc4)C(=O)N[C@@H](CC(C)C)C(=O)N[C@@H](CC(N)=O)C(=O)N[C@@H](CC(C)C)C(=O)N[C@H](C(=O)N[C@H](C(=O)N[C@@H](CCCNC(=N)N)C(=O)N[C@@H](CCC(N)=O)C(=O)N[C@@H](CCCNC(=N)N)C(=O)N[C@@H](Cc4ccc(O)cc4)C(N)=O)[C@@H](C)O)C(C)C)c(=O)c3c2)CC1
# Tests used:
# Y4R = assay: cell-based or functional assay
# Y1R = assay: cell-based or functional assay
# Sequence of Y1R (P25929 whole entry): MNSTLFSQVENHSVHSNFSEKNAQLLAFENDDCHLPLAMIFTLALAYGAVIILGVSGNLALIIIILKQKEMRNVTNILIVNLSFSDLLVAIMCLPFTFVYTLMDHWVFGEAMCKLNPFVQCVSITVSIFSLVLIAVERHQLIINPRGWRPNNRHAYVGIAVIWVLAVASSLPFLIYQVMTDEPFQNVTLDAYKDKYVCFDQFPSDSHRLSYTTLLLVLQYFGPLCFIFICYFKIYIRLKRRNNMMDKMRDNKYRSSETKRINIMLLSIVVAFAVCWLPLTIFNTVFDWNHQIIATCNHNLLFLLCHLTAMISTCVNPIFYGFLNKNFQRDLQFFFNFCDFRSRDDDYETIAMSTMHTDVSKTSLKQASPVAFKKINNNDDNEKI
Y4R EC50(nM) FLIPR (Y4R) [nM],Y1R EC50(nM) FLIPR (Y1R) [nM],Binder
> 5000,> 5000,Ac-I[Nle][Pqa]RHYKNLVDRQRY-NH2 (lactam 7-11) [Cyclo Lys28-Asp32 Ac-Ile-Nle-Pqa-Arg-His-Tyr-Lys-Asn-Leu-Val-Asp-Arg-Gln-Arg-Tyr-NH2]
> 5000,> 5000,B1
> 5000,> 5000,B2
> 5000,> 5000,Ac-I[Nle][Pqa]R[4‑MeOApc]YLNLVTRQRY-NH2 (reading uncertain) [Ac-Ile-Nle-Pqa-Arg-(4-MeOApc)-Tyr-Leu-Asn-Leu-Val-Thr-Arg-Gln-Arg-Tyr-NH2]
> 5000,> 5000,B3
> 5000,> 5000,B4
